# Laboratory results published in the supplement of paper PMC10201428.
# ± gives the standard deviation of the averaged measurements.
# Tested on: VchCAST RNA-guided transposition machinery (E. coli BL21(DE3) host, lacZ target)
# Experiment: relative integration efficiency (T-RL orientation) vs wild-type transposon end (log2 (normalized fold change)); transposon end mutated: right end (5 bp flank + 75 bp right end); higher = more efficient transposition
# Summary of the method: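 Barcode abundances in input plasmids and in genomic integration junctions were obtained by PCR amplification and Illumina sequencing. These came from E. coli BL21(DE3) co-transformed with a T7-driven effector plasmid and a pUC57 donor carrying 1549 left-end or 1849 right-end transposon variants, then plated with 0.1 mM IPTG at 37°C for 18 h. Relative integration efficiency is the output/input fold change, normalised to reference barcodes and log-transformed.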
row,Sequence,relative integration efficiency (log2)
1,ACATTTGTTGATACAACCATAAAATGATAATTACAACCATAAAATGATAATTATCATAATTATCATTTTATGGTTGCTCTGATCATAGTCAGACCAACATTGCTACGACCCGTATTCGCACCGACAC,0.241 ± 0.067
2,ACATTTGTTGATACAACCATAAAATGATAATTACACCCATAAATTGATAATTATCACACCCATAAATTGATAGGTAAGAGGATCATAGTCAGACCAACATTGCTACGACCCGTATTCGCACCGACAC,-0.281 ± 0.02
3,ACATTTGTTGATACAAGGTAAAAATGATAATTACACCCATAAATTGATAATTATCACACCCATAAATTGATATTGCCTCTGATCATAGTCAGACCAACATTGCTACGACCCGTATTCGCACCGACAC,-2.26 ± 0.11
4,CGCGCTGTTGATACAACCATAAAATGATAATTACACCCATAAATTGATAATTATCACACCCATAAATTGATATTGCCTCTGATCATAGTCAGACCAACATTGCTACGACCCGTATTCGCACCGACAC,0.101 ± 0.1
5,ACATTTGTTGATACAACCATAAAATGATAATTACTCTGATCATAGTCAGACCAACATTGCTACGACCCGTATTCGCACCACCCATAAATTGATAATTATCAGTGGGTATTTAACTATAACGCGACAC,-2.38 ± 0.56
6,ACATTTGTTGATACAACCATAAAATGATAATTACCCCCATAAATTGATAATAATGACACCGAATTTAACTATAACGCTCTGATCATAGTCAGACCAACATTGCTACGACCCGTATTCGCACCGACAC,-1.7 ± 0.48
7,ACATTTGTTGATAAAACCATAAAATGATTTTTAGAAACCATAATCTGAAATTATCACACCCATAAATTGATATTGCCTCTGATCATAGTCAGACCAACATTGCTACGACCCGTATTCGCACCGACAC,-2.97 ± 0.17
8,ACATTTGTTGATACAACCATAAAATGATAATTACAACCATAAAATGATAATTATCACACCCATAAATTGATATTGCCTCTGATCATAGTCAGACCAACATTGCTACGACCCGTATTCGCACCGACAC,-0.0716 ± 0.12
9,ACATTTGTTGATACACCCATAAATTGATAATTACAACCATAAAGTGATATTTATCACACCCATAAATTGATATTGCCTCTGATCATAGTCAGACCAACATTGCTACGACCCGTATTCGCACCGACAC,-0.477 ± 0.26
10,ACATTTGTTGATACAACCATAAAATGATAATTAATCACCCATAAATTGATAATTATCAACAAACGCCCGGTCGCGGTACTCTGATCATAGTCAGACCAACATTGCTACGACCCGTATTCGCACCGAC,-1.83 ± 0.42
11,ACATTAGTTGATACAACCATAAAATGATAATTACACCCATAAATTGATCATTATCACACCCAATTTAACTATAACGCTCTGATCATAGTCAGACCAACATTGCTACGACCCGTATTCGCACCGACAC,-7.38 ± 0.13
12,ACATTTGTTGATCAACCATAAAATGATAATTACACCCATAAATTGATAATTATCACACCCATAAATTGATATTGCCTCTGATCATAGTCAGACCAACATTGCTACGACCCGTATTCGCACCGACACT,-8.26 ± 0.75
13,ACATTTGTTGATACAACCATAAAATGATAATTACACCCATAAATTGATAATTATCACACCCATAAATTGATATTGCCTCTGATCCAACCATAAAATGATAATTAATAGTCAGACCAAGCACCGACAC,0.156 ± 0.25
14,ACATTTGTTGATACAACCATAAAATGTTAATTACACCCATAAATTGTTAATTATCACACCCATAAATTGTTATTGCCTCTGATCATAGTCAGACCAACATTGCTACGACCCGTATTCGCACCGACAC,-2.33 ± 0.29
15,ACATTTGTTGATACACCCATAAATTGATATTGCCAACCATATATTGATATCTCTCACAACCATATATTGATATCTCCTCTGATCATAGTCAGACCAACATTGCTACGACCCGTATTCGCACCGACAC,-1.29 ± 0.34
16,ACATTTGTTGATACAACCATATATTGATATCTCCACCCATAAATTGATAATTATCACACCCATAAATTGATAATTACTCTGATCATAGTCAGACCAACATTGCTACGACCCGTATTCGCACCGACAC,-0.315 ± 0.0034

row,Sequence,relative integration efficiency (log2)
1,ACATTTGTTGATACAACCATTAAATGATAATTCCACCCAGAAATTGATAATTATCACACCCAATTTAACTATAACGCTCTGATCATAGTCAGACCAACATTGCTACGACCCGTATTCGCACCGACAC,-3.25 ± 0.24
2,ACATTTCTCGATACAACCATAAAATGATAATTACACCCATAAATTGATCATTATCACACCCAATTTAACTATAACGCTCTGATCATAGTCAGACCAACATTGCTACGACCCGTATTCGCACCGACAC,-1.71 ± 0.54
3,ACATTTGTTGATACAACCATCAAATGATAATTACACCCATCAATTGATAATTATCACACCCATCAATTGATATTGCCTCTGATCATAGTCAGACCAACATTGCTACGACCCGTATTCGCACCGACAC,-1.73 ± 0.26
4,ACATTTGTTGATACAACCATATATTGATATCTCCAACCATAAAGTGATATTTATCACAACCATATATTGATATCTCCTCTGATCATAGTCAGACCAACATTGCTACGACCCGTATTCGCACCGACAC,-0.515 ± 0.17
5,ACATTTGTTGATACAACCATAAAGTGATATTTACAACCATAAGTTGATATTTTTCACACCCATAAATTGATAATTACTCTGATCATAGTCAGACCAACATTGCTACGACCCGTATTCGCACCGACAC,-0.192 ± 0.21
6,ACATTTGTTGATACAACCATAAAATGATAATTACACCCATAAATTCTATATTATCACACCCATAAATTGATATTGCCTCTGATCATAGTCAGACCAACATTGCTACGACCCGTATTCGCACCGACAC,-2.002 ± 0.013
7,ACATTTGTTGATACAACCATAAAATGATAATTTGACCCATAAATTGATAATTATCACACCCATAAATTGATATTGCCTCTGATCATAGTCAGACCAACATTGCTACGACCCGTATTCGCACCGACAC,-0.692 ± 0.19
8,ACATTTGTTGATACAACCATAAAATGATAATTACACCCATAAATTGATAATCACACCCATAAATTGATATTGCCTCTGATCATAGTCAGACCAACATTGCTACGACCCGTATTCGCACCGACACTGA,-1.32 ± 0.31
9,ACATTTGTTGATACAACCATAAAATGATAATTACACCCATAAAAACTTAATTATCACACCCATAAATTGATATTGCCTCTGATCATAGTCAGACCAACATTGCTACGACCCGTATTCGCACCGACAC,-0.679 ± 0.12
10,ACATTTGTTGATACAACCATAAAATGATAATTACAACCATAAGTTGATATTTTTCACAACCATATATTGATATCTCCTCTGATCATAGTCAGACCAACATTGCTACGACCCGTATTCGCACCGACAC,-0.125 ± 0.19
11,ACATTTTGGTATACAACCATAAAATGATAATTACACCCATAAATTGATAATTATCACACCCATAAATTGATATTGCCTCTGATCATAGTCAGACCAACATTGCTACGACCCGTATTCGCACCGACAC,-5.963 ± 0.038
12,ACATTTGTTGATACAACCATAAAAGGATTATTACACCCATTAATTGATAATTATCACACCCAATTTAACTATAACGCTCTGATCATAGTCAGACCAACATTGCTACGACCCGTATTCGCACCGACAC,-2.02 ± 0.28
13,ACATTTGTTGATACAACCATAAAATGATCATTACACCCATAAATTGATAATTATCCCACCCAATTTAACTATAACGCTCTGATCATAGTCAGACCAACATTGCTACGACCCGTATTCGCACCGACAC,-1.52 ± 0.18
14,ACATTTGTTGATACAACCATAAAATGATACGGCCACCCATAAATTGATACGGCTCACACCCATAAATTGATAGGTACTCTGATCATAGTCAGACCAACATTGCTACGACCCGTATTCGCACCGACAC,-1.54 ± 0.28
15,ACATTTGTTGATACAACCATAAAATGATAATTACACCCATAAATTGATAATTATCAACCCCATAAATTGATATTGCCTCTGATCATAGTCAGACCAACATTGCTACGACCCGTATTCGCACCGACAC,-0.731 ± 0.18
16,ACATTTGTTGATACAACCATAAAATGATAATTACACCCATAACGTGATAATTATCACACCCATAAATTGATATTGCCTCTGATCATAGTCAGACCAACATTGCTACGACCCGTATTCGCACCGACAC,0.496 ± 0.076
